Results published in paper PMC8886374, “Click Chemistry and Multicomponent Reaction for Linker Diversification of Zinc Dipicolylamine-Based Drug Conjugates” (Frontiers in Chemistry, 2022).

Legend:
[1] = In vivo pharmacokinetic study, i.v., ICR mice; design: species or system mouse; conditions: male ICR mice, i.v. 5 mg/kg; for AUCSN-38: SN-38 released from the dosed conjugate; for AUCSN-38 / AUC: 0–24 h; for AUC / clearance / Vd: mouse, in vivo, iv; for AUC: intact conjugate, read-out: AUCconjugate; for clearance / Vd: n = 3; for Vd: read-out: Vss
Method: Six-week-old ICR mice, purchased from Biolasco (Taiwan), were divided into groups of three and 100 µl of dosing solution was given intravenously. Through cardiac puncture, blood sample was collected from each sacrificed animal at time points at 0.003, 0.083, 0.25, 0.5, 1, 2, 4, 6, 8, and 24 h and stored on ice (0–4°C). Plasma was separated from the blood by centrifugation at 3,000 rpm for 15 min at 4°C in a Beckman Model Allegra 6R centrifuge. Analysis of the plasma samples were done by using liquid chromatography with tandem mass spectrometry (LC/MS/MS). A gradient system was used for the separation of analyte and IS. Ammonium acetate aqueous solution (10 mM) containing 0.1% formic acid was used as mobile phase A, while mobile phase B was acetonitrile. The gradient profile was as follows: 0.0–1.1 min, 50%B; 1.2–3.7 min, 55%B–90%B; 3.8–5.0 min, 90%B–50%B at the flow rate of 1.5 ml/min. The autosampler was programmed to inject 15 µl of sample every 5 min.
Next, to address the in vivo longevities and stabilities of U-4CR and/or “clicked” conjugates, in vivo systemic pharmacokinetic studies of conjugates 4–8 were carried out in the ICR mice. One single intravenous dose of 5 mg/kg of each conjugate was given to the mice. Plasma concentrations between the intact conjugate and the active payload (released SN-38 from the conjugate) in the circulation were measured and the pharmacokinetic parameters including clearance (CL), steady-state volume of distribution (Vss), and area under the plasma concentration curve (AUC0–24h) were determined (Table 2). Since SN-38 was the cytotoxic payload, the AUC ratio between the intact conjugate and SN-38 reflected the plasma stability, as these conjugates should be capable of uncaging the payload with higher protease activities in the tumor microenvironment. We envisioned that U-4CR could be a valuable synthetic strategy that unifies several advantageous features for bioactive SMDC in vivo. In addition to installing hydrophilic moiety to increase solubility and functional groups that modulate steady-state volume of distribution of the conjugate in vivo, a facile reactive handle for payload conjugation was also included. Indeed, we observed structure–property trends among the U-4CR-derived conjugates 5–8. Since these conjugates harnessed the same exo-BCN clicked SN-38 portion, the U-4CR products between the Zn-DPA targeting ligand and other components might contribute factors that could affect their in vivo stabilities (Table 2).

[2] = system: MiaPaca-2 pancreatic cancer cells; conditions: MiaPaca-2, MTS, 72 h
Method: MiaPaCa-2 cells, obtained from the Bioresource Collection and Research Center, Hsinchu, Taiwan, and the Detroit 551 cells were cultured in Dulbecco’s modified Eagle’s medium (DMEM). All cells were grown in a humidified CO2 incubator at 37°C. Cell viability was determined by the MTS assay. In brief, cells were cultured (2,500–3,000 cells/well) in flat bottomed 96-well plates for 24 h. Serial-diluted conjugates were added to the cell media and incubated for 72 h. Culture medium was removed after 72 h followed by the addition of 100 μl of MTS and PMS mixture solution. In a humidified incubator at 37°C with 5% CO2, cells were then incubated for another 1.5 h for viable cells to convert the tetrazolium salt into formazan. The conversion to formazan was monitored at the 490-nm absorbance by a BioTek PowerWave-X Absorbance Microplate Reader. In this MTS assay, the recorded data were normalized to DMSO-treated and background controls. Using GraphPad Prism version 4 software, the IC50 value was the amount of each conjugate that caused a 50% reduction in cell viability in comparison to DMSO-treated controls.

[3] = system: MiaPaca-2 human pancreatic tumor; test: In vivo anti-tumor study, MiaPaca-2 xenograft in nude mice; conditions: MiaPaca-2 tumor-bearing nude mice, i.v.; conjugate 4 10 mg/kg qd (5 + 5); CPT-11 40 mg/kg twice/week for 2 weeks
From the text: The number of viable cells was counted with a hemocytometer with trypan blue staining under a light microscope on the day of tumor cell inoculation. Cells were suspended with phenol red free RPMI-1640 and Matrigel in a 1:1 ratio. MiaPaca-2 suspension cells (1 × 10^6 cells) were implanted subcutaneously into the left flank of the nude mice using a 1-ml syringe (needle 24G × 1 in., 0.55 × 25 mm; TERUMO). A digital caliper was used to measure tumor sizes and dimensions as the tumor volume in mm^3 was calculated with the formula: Volume = (length × width^2)/2. Tumor-bearing mice were randomized (n = 8 per group) and mean tumor volume was approximately 170 mm^3. […] Body weight and tumor size were measured twice weekly.

[4] = system: ICR mice; test: In vivo maximum tolerated dose determination (acute toxicity); design: species or system mouse; conditions: 5-day repeat dose, 1-week recovery monitoring
Method: The acute toxicity studies were determined in ICR male mice. In general, the studies were conducted using the dose of 10-50 mpk for dosing 5 consecutive days and the survival of the animals and their body weight were monitored for 14 days after first dosing.
However, acute toxicity is another important parameter to be monitored in the development of SMDC. […] Not limited by the components described within, the optimization of in vivo pharmacokinetic profiles of alternative ZnDPA-based SMDC, we anticipate that U-4CR with combinations of different components can lead to the construction of improved properties, such as decrease in the clearance rate and steady-state volume of distribution (Vss). Moreover, we envision employment of an imaging agent as one of the components can also furnish functional theranostic if desired.

SMILES	AUCSN-38 [1]	AUC [1]	clearance [1]	Vd [1]	decrease in potency towards MiaPaca-2 (IC50 ratio) compared to SN-38 [2]	tumor shrinkage [3]	difference in the AUC for the intact conjugate versus the released SN-38 within 24 h [1]	maximum tolerated dose (MTD) [4]
C/C=C/C(=O)N(CCCCOc1cc(CN(Cc2ccccn2)Cc2ccccn2)cc(CN(Cc2ccccn2)Cc2ccccn2)c1)C1(C(=O)NC(C)(C)C)CCN(C(=O)OC[C@H]2[C@@H]3CCc4nnn(CCOCCOCCN(Cc5ccc(C(=O)Oc6ccc7nc8c(c(CC)c7c6)Cn6c-8cc7c(c6=O)COC(=O)[C@]7(O)CC)cc5)C(=O)C5(c6ccc(Cl)cc6)CCCCC5)c4CC[C@@H]32)CC1 [conjugate 7]	1,309 ng/ml*h	20700 ng·h/mL	8.3 mL/min/kg	3.6 L/kg				
CCc1c2c(nc3ccc(OC(=O)c4ccc(CN(CCOCCOCCn5nnc6c5CC[C@H]5[C@@H](CC6)[C@@H]5COC(=O)N(C)CCCC(=O)N(CCCCOc5cc(CN(Cc6ccccn6)Cc6ccccn6)cc(CN(Cc6ccccn6)Cc6ccccn6)c5)C5(C(=O)NC(C)(C)C)CCOCC5)C(=O)C5(c6ccc(Cl)cc6)CCCCC5)cc4)cc13)-c1cc3c(c(=O)n1C2)COC(=O)[C@]3(O)CC [conjugate 5]	696 ng·h/mL	1590 ng·h/mL	50.2 mL/min/kg	18.5 L/kg				
CCc1c2c(nc3ccc(OC(=O)N4CCC(N5CCCCC5)CC4)cc13)-c1cc3c(c(=O)n1C2)COC(=O)[C@]3(O)CC [CPT-11, irinotecan]					~350 fold	not observed		
CCOP(=O)(CNC(=O)C1(N(CCCCOc2cc(CN(Cc3ccccn3)Cc3ccccn3)cc(CN(Cc3ccccn3)Cc3ccccn3)c2)C(=O)c2ccc(-c3ccc(O)cc3)cc2)CCN(C(=O)OC[C@H]2[C@@H]3CCc4nnn(CCOCCOCCN(Cc5ccc(C(=O)Oc6ccc7nc8c(c(CC)c7c6)Cn6c-8cc7c(c6=O)COC(=O)[C@]7(O)CC)cc5)C(=O)C5(c6ccc(Cl)cc6)CCCCC5)c4CC[C@@H]32)CC1)OCC [conjugate 8]	1,549 ng/ml*h	62000 ng·h/mL	1.3 mL/min/kg	0.1 L/kg			40 fold	30 mpk
CCc1c2c(nc3ccc(OC(=O)c4ccc(CN(CCOCCOCCn5nnc6c5CC[C@H]5[C@@H](CC6)[C@@H]5COC(=O)N5CCC(C(=O)N(CCCCOc6cc(CN(Cc7ccccn7)Cc7ccccn7)cc(CN(Cc7ccccn7)Cc7ccccn7)c6)C6(C(=O)NC(C)(C)C)CCOCC6)CC5)C(=O)C5(c6ccc(Cl)cc6)CCCCC5)cc4)cc13)-c1cc3c(c(=O)n1C2)COC(=O)[C@]3(O)CC [conjugate 6]	927 ng·h/mL	6460 ng·h/mL	13.5 mL/min/kg	4.1 L/kg				
